{
  "source": "patent US12616751B2",
  "about": "“Photosensitizing antibody-fluorophore conjugates” (The USA, as represented by the Secretary, Department of …, priority 2010, dated 2026)",
  "key": {"A431 cells [1]": {"system": "A431 cells", "type": "cell-based", "experimental": "EGFR-expressing A431 cells were used as the target HER1+ cells. […] Cells were grown in RPMI 1640 supplemented with 10% fetal bovine serum and 1% penicillin/streptomycin in tissue culture flasks in a humidified incubator at 37° C. in an atmosphere of 95% air and 5% carbon dioxide. A431 or Balb/3T3/DsRed cells were seeded on cover glass-bottomed dishes and incubated for 24 hours. Pan-IR700 was added to the culture medium at 10 μg/mL and incubated either for 1 hour on ice or 6 hours at 37° C., then cells were washed with PBS. Culture medium was replaced with phenol red-free medium after washing with phosphate buffered saline (PBS).\nPIT was performed as described in Examples 2 and 3."}, "A431 tumor": {"system": "A431 tumor", "assay": "In vivo fluorescence imaging of Pan-IR700 in A431 tumors", "set-up": "species or system mice", "experimental": "(§1) To confirm antigen specific localization of Pan-IR700, 1×10^6 of 3T3/HER2 cells (HER1 negative) were injected subcutaneously in the right dorsum at the same time of A431 cells injection. […] Regions of interest (ROI) for both tumor and background were placed for equivalent sized areas containing the same number of pixels. Tumor to background ratio (TBR) was calculated using the following formula: TBR=((mean tumor intensity)−(mean background intensity))/((mean non-tumor intensity)−(mean background intensity))."}, "3T3/HER2 tumor": {"system": "3T3/HER2 tumor", "assay": "In vivo fluorescence imaging of Pan-IR700 in HER1 negative tumor", "set-up": "species or system mice", "conditions": "mouse, listed as Pan-1R700", "experimental": "as §1"}, "MDA-MB-468 cells": {"system": "MDA-MB-468 cells", "assay": "In vitro PIT, microscopy before and after", "type": "cell-based", "experimental": "For photoimmunotherapy (PIT), cells were seeded on 35 mm cover glass-bottomed dishes and incubated 24 hours. […] Culture medium was replaced with phenol red-free medium after washing with phosphate buffered saline (PBS). Cells were irradiated with light at 670 nm to 690 nm using a red light emitting diode (LED; FluorVivo; INDEC Systems Inc., Capitola, Calif.) with a power density of 2.6 mW cm^−2 as measured with optical power meter (PM 100, Thorlabs, Newton, N.J.). Cell viability was assessed 1 hour after treatment with LIVE/DEAD® Fixable Green Dead Cell Stain Kit (Invitrogen). After the treatment, cells were trypsinized and washed with PBS. Green fluorescent reactive dye was added in the cell suspension and incubated at room temperature for 30 minutes. Cells were then analyzed on flow cytometer (FACS Calibur, BD BioSciences, San Jose, Calif.).\nThis example describes additional results showing that the disclosed antibody-IR700 compounds selectively kill cells that express the appropriate protein. The photoimmunotherapy (PIT) methods are described in Example 2."}, "A431 cells [2]": {"system": "A431 cells", "assay": "Cell pellet FLT studies", "type": "cell-based", "experimental": "Reagents. […] All other chemicals used were of reagent grade. […] Then the mixture was purified with a Sephadex G50 column (PD-10; GE Healthcare). The protein concentrations were determined with Coomassie Plus protein assay kit (Pierce Biotechnology) by measuring light absorption at 595 nm (8453 Value System; Agilent Technologies). […] The number of IR700 per antibody was approximately 4 for the 1:4.5 reaction conditions. The addition of 0.4% SDS to the sample dissociated the fluorophores from each other, effectively causing dequenching. Quenching efficiency (QE) for a particular conjugation is defined as the fluorescence intensity with SDS divided by fluorescence intensity without SDS. […] Pan-1R700 was kept at 4° C. in the refrigerator as a stock solution. Fluorescence lifetime measurements. FLT experiments were performed with the eXplore OptixTm-MX2 system (ART Advanced Research Technologies, Inc.) (Hutchinson et al., Biophys J 68:1574-82, 1995; Ma et al., Appl Opt 46:1650-7, 2007). […] Lifetime values and lifetime mapping were calculated to fit fluorescence temporal point-spread functions (TPSFs) as single-exponential models with the Fit TPSF tool. […] Power densities were measured with an optical power meter (PM 100, Thorlabs). […] The fluorescence intensities and lifetimes of each sample were determined using the Optix MX2 system at room temperature within a 1.7 ml centrifuge tube. To investigate the effect of PIT using Pan-1R700, the FLT of each sample at the concentration of 50 pg/mL was measured after irradiating the samples at a PIT dose of 0, 2, 4, 8, 15, 30 J/cm2. […] The fluorescence intensities and lifetimes of each sample were then obtained. […] After that, these pellets were gently washed with PBS×1 and fluorescence intensity and lifetime images were obtained. To detect the antigen specific localization of IR700 and to confirm the morphological changes of A431 cells before and after PIT, fluorescence microscopy was performed using Olympus BX61 microscope (Olympus America) equipped with the following filters: a 590-650 nm excitation filter, a 665-740 nm band pass emission filter. […]"}},
  "note": "“Also recorded” adds a separate entry of the source.",
  "data": [
    {"substance": "Pan-IR700: Panitumumab (anti-human EGFR IgG2 MAb) conjugated to IR700; about 3 to 4 IR700 per antibody", "values": [
      {"measurement": "cytotoxicity without excitation light", "setting": "A431 cells [1]", "result": "no significant cytotoxicity"},
      {"measurement": "cell death after irradiation", "setting": "A431 cells [1]; 0.5 to 2 J cm^−2", "result": "rapid cell death in a dose-dependent manner"},
      {"measurement": "cell killing by PIT (microscopy)", "setting": "A431 cells [1]; FIG. 8", "result": "specifically killed"},
      {"measurement": "target-specific phototoxicity in co-culture", "setting": "A431 cells [1]; co-cultured with Balb/3T3/DsRed (HER1 negative) cells", "result": "Target-specific phototoxicity was also confirmed"},
      {"measurement": "fluorescence intensity of tumor, 300 μg versus 50 μg injection", "setting": "A431 tumor; 1 day after injection", "result": "more than 3 times"},
      {"measurement": "TBR, 300 μg versus 50 μg injection", "setting": "A431 tumor; mouse, in vivo", "result": "lower"},
      {"measurement": "fluorescence intensity in tumor over time", "setting": "A431 tumor; mouse, in vivo", "result": "decreased gradually over days"},
      {"measurement": "other localization of IR700 (biodistribution)", "setting": "A431 tumor; mouse, in vivo", "result": "no other specific localization of IR700 except for bladder accumulation on day 1"},
      {"measurement": "tumor localization (in vivo fluorescence imaging)", "setting": "A431 tumor; mouse, in vivo", "result": "localized to the A431 tumor"},
      {"measurement": "fluorescence of HER1 negative tumor", "setting": "3T3/HER2 tumor", "result": "the same as that of background; also recorded: did not show detectable fluorescence"},
      {"measurement": "cell killing by PIT (microscopy)", "setting": "MDA-MB-468 cells", "result": "specifically killed"},
      {"measurement": "shortening of FLT", "setting": "A431 cells [2]; 8 J/cm^2 versus before light exposure", "result": 9.1, "unit": "%"},
      {"measurement": "shortening of FLT", "setting": "A431 cells [2]; 15 J/cm^2 versus before light exposure", "result": 10.1, "unit": "%"},
      {"measurement": "shortening of FLT", "setting": "A431 cells [2]; 30 J/cm^2 versus before light exposure", "result": 13.1, "unit": "%"}
    ]}
  ]
}
